Data as given in US20120034160A1 (AbbVie / Abbott, published 2012).

T1: Recombinant Human IL-17 (human, UniProt Q16552 20-155, limits assumed)
T1 sequence (looked up): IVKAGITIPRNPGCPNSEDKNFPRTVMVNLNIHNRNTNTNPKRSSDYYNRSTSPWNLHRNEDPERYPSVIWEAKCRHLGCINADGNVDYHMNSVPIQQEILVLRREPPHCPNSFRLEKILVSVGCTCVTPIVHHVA


Legend:
[1] = biological target: Recombinant Human IL-1β (human, UniProt P01584 117-269); assay: cell-based or functional assay
[2] = biological target: T1, Recombinant Human IL-17; assay: cell-based or functional assay

Binder	C-Terminal VD IL-1β Neutralization Assay EC50 [1]	N-terminal VD IL-17 Neutralization Assay EC50 [2]	N-Terminal VD IL-1β Neutralization Assay EC50 [1]	C-terminal VD IL-17 Neutralization Assay EC50 [2]
DVD1626 (bispecific antibody, human IgG1, kappa) heavy: not shown light: DIQMTQSPSSLSASVGDRVTITCRASSGIISYIDWFQQKPGKAPKRLIYATFDLASGVPSRFSGSGSGTDYTLTISSLQPEDFATYYCRQVGSYPETFGQGTKLEIKRTVAAPDTVVTQSPAFLSVTPGEKVTITCITSTDIDVDMNWYQQKPDQPPKLLISQGNTLRPGVPSRFSSSGSGTDFTFTISSLEAEDAATYYCLQSDNLPLTFGQGTKLEIKRTVAAPSVFIFPPSDEQLKSGTASVVCLLNNFYPREAKVQWKVDNALQSGNSQESVTEQDSKDSTYSLSSTLTLSKADYEKHKVYACEVTHQGLSSPVTKSFNRGEC	17400 pM	6.4 pM	–	–
DVD1629 (bispecific antibody, human IgG1, kappa) heavy: not shown light: DIQMTQSPSSLSASVGDRVTITCRASGNIHNYLTWYQQTPGKAPKLLIYNAKTLADGVPSRFSGSGSGTDYTFTISSLQPEDIATYYCQHFWSIPYTFGQGTKLQITRTVAAPEIVLTQSPDFQSVTPKEKVTITCRASQDIGSELHWYQQKPDQPPKLLIKYASHSTSGVPSRFSGSGSGTDFTLTINGLEAEDAGTYYCHQTDSLPYTFGPGTKVDIKRTVAAPSVFIFPPSDEQLKSGTASVVCLLNNFYPREAKVQWKVDNALQSGNSQESVTEQDSKDSTYSLSSTLTLSKADYEKHKVYACEVTHQGLSSPVTKSFNRGEC	–	–	12.6 pM	360 pM
DVD1623 (bispecific antibody, human IgG1, kappa) heavy: not shown light: DTQVTQSPSSLSASVGDRVTITCITSTDIDVDMNWYQQKPGKPPKLLISQGNTLRPGVPSRFSSSGSGTDFTFTISSLQPEDFATYYCLQSDNLPLTFGQGTKLEIKRTVAAPDIQMTQSPSSLSASVGDRVTITCRASSGIISYIDWFQQKPGKAPKRLIYATFDLASGVPSRFSGSGSGTDYTLTISSLQPEDFATYYCRQVGSYPETFGQGTKLEIKRTVAAPSVFIFPPSDEQLKSGTASVVCLLNNFYPREAKVQWKVDNALQSGNSQESVTEQDSKDSTYSLSSTLTLSKADYEKHKVYACEVTHQGLSSPVTKSFNRGEC	–	–	160 pM	23.8 pM
DVD1627 (bispecific antibody, human IgG1, kappa) heavy: not shown light: ETTVTQSPSSLSASVGDRVTITCITSTDIDVDMNWYQQKPGKPPKLLISQGNTLRPGVPSRFSSSGSGTDFTFTISSLQPEDFATYYCLQSDNLPLTFGQGTKLEIKRTVAAPDIQMTQSPSSLSASVGDRVTITCRASSGIISYIDWFQQKPGKAPKRLIYATFDLASGVPSRFSGSGSGTDYTLTISSLQPEDFATYYCRQVGSYPETFGQGTKLEIKRTVAAPSVFIFPPSDEQLKSGTASVVCLLNNFYPREAKVQWKVDNALQSGNSQESVTEQDSKDSTYSLSSTLTLSKADYEKHKVYACEVTHQGLSSPVTKSFNRGEC	–	–	621 pM	58.6 pM
DVD1624 (bispecific antibody, human IgG1, kappa) heavy: not shown light: DIQMTQSPSSLSASVGDRVTITCRASSGIISYIDWFQQKPGKAPKRLIYATFDLASGVPSRFSGSGSGTDYTLTISSLQPEDFATYYCRQVGSYPETFGQGTKLEIKRTVAAPDTQVTQSPSSLSASVGDRVTITCITSTDIDVDMNWYQQKPGKPPKLLISQGNTLRPGVPSRFSSSGSGTDFTFTISSLQPEDFATYYCLQSDNLPLTFGQGTKLEIKRTVAAPSVFIFPPSDEQLKSGTASVVCLLNNFYPREAKVQWKVDNALQSGNSQESVTEQDSKDSTYSLSSTLTLSKADYEKHKVYACEVTHQGLSSPVTKSFNRGEC	> 20000 pM	4.2 pM	–	–
DVD1628 (bispecific antibody, human IgG1, kappa) heavy: not shown light: DIQMTQSPSSLSASVGDRVTITCRASSGIISYIDWFQQKPGKAPKRLIYATFDLASGVPSRFSGSGSGTDYTLTISSLQPEDFATYYCRQVGSYPETFGQGTKLEIKRTVAAPETTVTQSPSSLSASVGDRVTITCITSTDIDVDMNWYQQKPGKPPKLLISQGNTLRPGVPSRFSSSGSGTDFTFTISSLQPEDFATYYCLQSDNLPLTFGQGTKLEIKRTVAAPSVFIFPPSDEQLKSGTASVVCLLNNFYPREAKVQWKVDNALQSGNSQESVTEQDSKDSTYSLSSTLTLSKADYEKHKVYACEVTHQGLSSPVTKSFNRGEC	5850 pM	16.3 pM	–	–
DVD1625 (bispecific antibody, human IgG1, kappa) heavy: not shown light: DTVVTQSPAFLSVTPGEKVTITCITSTDIDVDMNWYQQKPDQPPKLLISQGNTLRPGVPSRFSSSGSGTDFTFTISSLEAEDAATYYCLQSDNLPLTFGQGTKLEIKRTVAAPDIQMTQSPSSLSASVGDRVTITCRASSGIISYIDWFQQKPGKAPKRLIYATFDLASGVPSRFSGSGSGTDYTLTISSLQPEDFATYYCRQVGSYPETFGQGTKLEIKRTVAAPSVFIFPPSDEQLKSGTASVVCLLNNFYPREAKVQWKVDNALQSGNSQESVTEQDSKDSTYSLSSTLTLSKADYEKHKVYACEVTHQGLSSPVTKSFNRGEC	–	–	522 pM	7.6 pM

Second part, the binder after the results:

C-Terminal VD IL-1β Neutralization Assay EC50 [1]	N-terminal VD IL-17 Neutralization Assay EC50 [2]	N-Terminal VD IL-1β Neutralization Assay EC50 [1]	C-terminal VD IL-17 Neutralization Assay EC50 [2]	Binder
–	–	4.17 pM	460 pM	DVD1631 (bispecific antibody, human IgG1, kappa) heavy: not shown light: DIQMTQSPSSLSASVGDRVTITCRASGNIHNYLTWYQQTPGKAPKLLIYNAKTLADGVPSRFSGSGSGTDYTFTISSLQPEDIATYYCQHFWSIPYTFGQGTKLQITRTVAAPEIVLTQSPDFQSVTPKEKVTITCRASQDIGSELHWYQQKPDQPPKLLIKYASHSTSGVPSRFSGSGSGTDFTLTINGLEAEDAGTYYCHQTDSLPYTFGPGTKVDIKRTVAAPSVFIFPPSDEQLKSGTASVVCLLNNFYPREAKVQWKVDNALQSGNSQESVTEQDSKDSTYSLSSTLTLSKADYEKHKVYACEVTHQGLSSPVTKSFNRGEC
9380 pM	4.1 pM	–	–	DVD1630 (bispecific antibody, human IgG1, kappa) heavy: not shown light: EIVLTQSPDFQSVTPKEKVTITCRASQDIGSELHWYQQKPDQPPKLLIKYASHSTSGVPSRFSGSGSGTDFTLTINGLEAEDAGTYYCHQTDSLPYTFGPGTKVDIKRTVAAPDIQMTQSPSSLSASVGDRVTITCRASGNIHNYLTWYQQTPGKAPKLLIYNAKTLADGVPSRFSGSGSGTDYTFTISSLQPEDIATYYCQHFWSIPYTFGQGTKLQITRTVAAPSVFIFPPSDEQLKSGTASVVCLLNNFYPREAKVQWKVDNALQSGNSQESVTEQDSKDSTYSLSSTLTLSKADYEKHKVYACEVTHQGLSSPVTKSFNRGEC
438 pM	6.5 pM	–	–	DVD1632 (bispecific antibody, human IgG1, kappa) heavy: not shown light: EIVLTQSPDFQSVTPKEKVTITCRASQDIGSELHWYQQKPDQPPKLLIKYASHSTSGVPSRFSGSGSGTDFTLTINGLEAEDAGTYYCHQTDSLPYTFGPGTKVDIKRTVAAPDIQMTQSPSSLSASVGDRVTITCRASGNIHNYLTWYQQTPGKAPKLLIYNAKTLADGVPSRFSGSGSGTDYTFTISSLQPEDIATYYCQHFWSIPYTFGQGTKLQITRTVAAPSVFIFPPSDEQLKSGTASVVCLLNNFYPREAKVQWKVDNALQSGNSQESVTEQDSKDSTYSLSSTLTLSKADYEKHKVYACEVTHQGLSSPVTKSFNRGEC
1080 pM	12.2 pM	–	–	DVD1644 (bispecific antibody, human IgG1, kappa) heavy: not shown light: EIVLTQSPDFQSVTPKEKVTITCRASQNIGSELHWYQQKPDQSPKLLIKYASHSISGVPSRFSGSGSGTDFTLTINGLEAEDAATYYCHQSDTLPHTFGQGTKVDIKRTVAAPDTQVTQSPSSLSASVGDRVTITCITSTDIDVDMNWYQQKPGKPPKLLISQGNTLRPGVPSRFSSSGSGTDFTFTISSLQPEDFATYYCLQSDNLPLTFGQGTKLEIKRTVAAPSVFIFPPSDEQLKSGTASVVCLLNNFYPREAKVQWKVDNALQSGNSQESVTEQDSKDSTYSLSSTLTLSKADYEKHKVYACEVTHQGLSSPVTKSFNRGEC
